Numbered stars: 1 amine (or outer) side, 2 acyl side, 3 side chain; on linkers, the order of the positions; unused ones are H or OH. Square brackets hold non-standard residues; d marks the D form. Peptide text beside a SMILES is read from it. * marks the point of attachment. DOTA = O=C(O)CN1CCN(CC(=O)O)CCN(CC(=O)*)CCN(CC(=O)O)CC1; Cha = N[C@@H](CC1CCCCC1)C(=O)O; X1 = O=C(CCC(=O)[*:2])CN[*:1]; 4Abz = Nc1ccc(C(=O)O)cc1; Nle = CCCC[C@H](N)C(=O)O
Assays:
[1] = Radio-HPLC retention time as reflection of lipophilicity; type: physicochemical; conditions: chromatographic, econosphere C18 (10 μm, 250 × 4.6 mm), 0.1% TFA water/acetonitrile, 5 to 95% B over 30 min, 1.1 mL/min; radio detection; used as reflection of lipophilicity
Procedure: The HPLC analysis and purification of the peptides were performed on a Shimadzu HPLC system using econosphere C18 reversed-phase column (10 μm, 250 × 4.6 mm). For all HPLC experiments, a gradient system of 0.1% (v/v) TFA in water (solvent A) and 0.1% (v/v) TFA in acetonitrile (solvent B) at a flow rate of 1.1 mL/min was used. The HPLC gradient began with a solvent composition of 95% A and 5% B from 0 to 2.5 min followed by a linear gradient of 95% A and 5% B to 5% A and 95% B over 30 min. The gradient remained at this position for 3 min before switching back to 95% A and 5% B for another 7 min. The major peak isolated and the acetonitrile was then slowly evaporated under a stream of nitrogen gas. Radiochemical purity was estimated by evaluating radioactivity peaks eluted for each ^68Ga-labeled peptide from the HPLC column and calculating the area under the peak (ROI). The main peak of each radiopeptide was isolated and reconstituted in sterile saline for in vitro and in vivo experiments. Radiolabeling of DOTA-coupled BN peptides with ^68Ga was accomplished simply by mixing ~ 20 μg BN peptide with sodium acetate buffer and ^68GaCl3 followed by heating to complete the labeling reaction. By this facile method, a high and reproducible radiolabeling of peptides with ^68Ga was achieved (up to 95%), with a specific radioactivity of greater than 250 Ci/mmol. […] A radiolabeling efficiency of greater than 90% was obtained in all cases, and it ranged between 90 and 95%. […] RP-HPLC retention times of the major peaks, ranging from 18.3 to 20.3 min, reflected slightly variable lipophilicity of these ^68Ga-complexes (Table 1).

[2] = in vivo; set-up: species or system Balb/c mice; conditions: Balb/c, mouse, iv
Procedure: Approval for the animal protocol used in this study was obtained from the Institutional Animal Care and Use Committee. Animal studies were conducted according to the international regulations governing the safe and proper use of laboratory animals. In vivo biodistribution were performed on healthy Balb/c mice (n = 3–5 in each group, body weight 19–22 g) at 1 and 2 h after intravenous injection of the HPLC-purified radiopeptide (100 μL, 15–20 μCi, total peptide dose ~ 20 ng) via the lateral tail vein. The mice were sacrificed by cervical dislocation at specified time points and blood samples were withdrawn with a syringe from the heart. Major organs such as lungs, stomach, spleen, pancreas, intestines, liver, kidneys, etc. were isolated, weighed, and radioactivity in each organs and tissues were measured using a γ-scintillation counter. Uptake of radioactivity in the tissues and organs was expressed as the percent injected dose per gram (% ID/g) of tissue/organ, which was calculated by comparison with standard solutions representing 10% of the injected dose per animal. For the clearance studies, radioactivity in the urine with bladder and feces is expressed as the percent of the injected dose per tissue (% ID). Values are expressed as mean ± SD for a group of 3-5 animals at each time point.

[3] = target: T1, BN/GRP receptor-positive T47D human breast cancer cells (Homo sapiens, UniProt P30550); assay: Saturation binding assay on T47D cells; conditions: n = 3-5 experiments; for Bmax (apparent number of binding sites per cell): SD < 15%
T1 construct: BN/GRP receptor-positive MDA-MB-231, MCF7, T47D human breast cancer, and PC3 human prostate cancer lines; host or cells: MDA-MB-231, MCF7, T47D (human breast cancer), PC3 (human prostate cancer); intact cells
Procedure: (§1) The cell binding of ^68Ga-radiolabeled peptides into BN/GRP receptor-positive MDA-MB-231, MCF7, T47D human breast cancer, and PC3 human prostate cancer lines (American Type Culture Collection, Rockville, MD, USA) was performed according to the method described previously. In brief, ∼ 300,000 cells (in 300 μL in low-serum media) were incubated with various amounts of radiopeptides, ranging between 0.1 and 25 nM of peptide (prepared from the serial dilutions of HPLC-purified radiopeptides), in duplicate for 60 min at room temperature. The initial concentrations of ^68Ga-labeled peptides were determined according to a well-established HPLC technique with simultaneous detection by UV absorbance. As the amount of BN peptide in the reaction mixture was too small to be detected by UV absorption at 220 nm, the radioactive peptide chromatograms from the HPLC analysis were compared (with UV chromatograms) with those of known concentrations of the corresponding nonradioactive peptides for the mass determination. Incubation was terminated by dilution with cold saline (300 μL) and the cells were pelleted by centrifugation. The cell pellets was then rapidly washed with cold saline to remove any unbound peptide and centrifuged to collect supernatants. Radioactivity in the cell pellet and the washings was measured in a γ-counter. Non-specific binding was determined in the presence of ~ 200-fold molar excess of unlabeled BN peptide. Specific binding is calculated by subtracting the non-specifically bound radioactivity from that of the total binding. The dissociation constant (Kd) was calculated using a plot of cell bound activity versus the concentration of the radioligand using GraphPad Prism software (GraphPad Software Inc., San Diego, CA, USA).

[4] = target: T2, BN/GRP receptor-positive PC3 human prostate cancer cells (Homo sapiens, UniProt P30550); assay: Saturation binding assay on PC3 cells; conditions: n = 3-5 experiments; for Bmax (apparent number of binding sites per cell): SD < 15%
T2 construct: BN/GRP receptor-positive MDA-MB-231, MCF7, T47D human breast cancer, and PC3 human prostate cancer lines; host or cells: MDA-MB-231, MCF7, T47D (human breast cancer), PC3 (human prostate cancer); intact cells
Procedure: as §1

[5] = total radioactivity, %ID excreted in Feces
[6] = total radioactivity, Uptake in Bone
[7] = total radioactivity, Uptake in Intestines (measured without their contents)
[8] = total radioactivity, Uptake in Kidneys
[9] = total radioactivity, Uptake in Pancreas
[10] = total radioactivity, Uptake in Spleen
[11] = total radioactivity, Uptake in Stomach
[12] = ~300,000 cells, 0.1-25 nM radiopeptide, 60 min, room temperature, mean ± SD

In the case of `CCCC[C@H](NC(=O)[C@H](Cc1c[nH]cn1)NC(=O)[C@H](CC1CCCCC1)NC(=O)[C@@H](NC(=O)[C@H](C)NC(=O)[C@H](Cc1c[nH]c2ccccc12)NC(=O)[C@H](CCC(N)=O)NC(=O)[C@H](CS)NC(=O)CNC(=O)CNC(=O)c1ccc(NC(=O)CN2CCN(CC(=O)O)CCN(CC(=O)O)CCN(CC(=O)O)CC2)cc1)C(C)C)C(=O)N[C@@H](CCSC)C(N)=O` [^68Ga-DOTA-Abz-BN Cyclen, metal not drawn] ({DOTA-4Abz}-GGCQWAV[Cha]H[Nle]M-NH2), the “Radio-HPLC tR” value [1] is reported as 19.2 min, the “%ID excreted in Urine” value ([2]; 1 h) is reported as 70.0 ± 8.60 %ID and the “Uptake in Liver” value ([2]; 1 h) is reported as 0.68 ± 0.16 %ID/g. For the same molecule, the “Uptake in Lungs” value ([2]; 1 h) was 0.21 ± 0.05 %ID/g, the dose excreted at 1 h [2, 5] was 1.01 ± 0.2% and the dose excreted at 2 h [2, 5] was 0.88 ± 0.12%. The dose excreted at 2 h ([2]; total radioactivity, %ID excreted in Urine) was 62 ± 9.54%, the tissue uptake at 1 h ([2]; total radioactivity, Uptake in Blood) was 0.4 ± 0.11 %ID/g and the tissue uptake at 1 h [2, 6] was 0.13 ± 0.04 %ID/g. For the same molecule, the tissue uptake at 2 h [2, 6] was 0.09 ± 0.01 %ID/g, the tissue uptake at 1 h [2, 7] was 0.85 ± 0.17 %ID/g and the tissue uptake at 2 h [2, 7] was 0.53 ± 0.14 %ID/g. The tissue uptake at 1 h [2, 8] was 2.96 ± 0.3 %ID/g, the tissue uptake at 2 h [2, 8] was 1.88 ± 0.25 %ID/g and the tissue uptake at 2 h ([2]; total radioactivity, Uptake in Liver) was 0.5 ± 0.07 %ID/g. The tissue uptake at 1 h [2, 9] was 1.07 ± 0.13 %ID/g, the tissue uptake at 2 h [2, 9] was 0.88 ± 0.11 %ID/g and the tissue uptake at 1 h [2, 10] was 0.12 ± 0.02 %ID/g. For the same molecule, the tissue uptake at 2 h [2, 10] was 0.07 ± 0.01 %ID/g, the tissue uptake at 1 h [2, 11] was 1.69 ± 0.24 %ID/g and the tissue uptake at 2 h [2, 11] was 0.45 ± 0.1 %ID/g. For the same molecule, the “Bmax (apparent number of binding sites per cell)” value [3] was 1.17 × 10^5 sites/cell and the “Bmax (apparent number of binding sites per cell)” value [4] was 4.30 × 10^5 sites/cell.
With `CCCC[C@H](NC(=O)[C@H](Cc1c[nH]cn1)NC(=O)[C@H](CC1CCCCC1)NC(=O)[C@@H](NC(=O)[C@H](C)NC(=O)[C@H](Cc1c[nH]c2ccccc12)NC(=O)[C@H](CCC(N)=O)NC(=O)[C@H](CS)NC(=O)CNC(=O)CNC(=O)CCC(=O)CNC(=O)CN1CCN(CC(=O)O)CCN(CC(=O)O)CCN(CC(=O)O)CC1)C(C)C)C(=O)N[C@@H](CCSC)C(N)=O` [^68Ga-DOTA-ALA-BN Tris-, metal not drawn] ({DOTA}-[X1]GGCQWAV[Cha]H[Nle]M-NH2) the “Radio-HPLC tR” value [1] was 20.3 min, the “%ID excreted in Feces” value ([2]; 1 h) was 1.03 ± 0.12 %ID and the “%ID excreted in Urine” value ([2]; 1 h) was 71.0 ± 12.45 %ID. The “Uptake in Blood” value ([2]; 1 h) was 0.88 ± 0.14 %ID/g, the “Uptake in Bone” value ([2]; 1 h) was 0.14 ± 0.03 %ID/g and the “Uptake in Intestines (measured without their contents)” value ([2]; 1 h) was 0.85 ± 0.13 %ID/g. The “Uptake in Kidneys” value ([2]; 1 h) was 3.83 ± 0.67 %ID/g, the “Uptake in Liver” value ([2]; 1 h) was 1.78 ± 0.26 %ID/g and the “Uptake in Lungs” value ([2]; 1 h) was 0.42 ± 0.10 %ID/g. For the same molecule, the “Uptake in Pancreas” value ([2]; 1 h) was 0.98 ± 0.13 %ID/g, the “Uptake in Spleen” value ([2]; 1 h) was 0.14 ± 0.03 %ID/g and the “Uptake in Stomach” value ([2]; 1 h) was 1.44 ± 0.26 %ID/g. For the same molecule, the “%ID excreted in Feces” value ([2]; 2 h) was 0.77 ± 0.10 %ID, the “%ID excreted in Urine” value ([2]; 2 h) was 78.0 ± 15.0 %ID and the “Uptake in Blood” value ([2]; 2 h) was 0.27 ± 0.02 %ID/g. The “Uptake in Bone” value ([2]; 2 h) was 0.08 ± 0.01 %ID/g, the “Uptake in Intestines (measured without their contents)” value ([2]; 2 h) was 0.64 ± 0.14 %ID/g and the “Uptake in Kidneys” value ([2]; 2 h) was 2.76 ± 0.49 %ID/g. The “Uptake in Liver” value ([2]; 2 h) was 0.86 ± 0.17 %ID/g, the “Uptake in Lungs” value ([2]; 2 h) was 0.19 ± 0.03 %ID/g and the “Uptake in Pancreas” value ([2]; 2 h) was 0.82 ± 0.12 %ID/g. The “Uptake in Spleen” value ([2]; 2 h) was 0.10 ± 0.02 %ID/g, the “Uptake in Stomach” value ([2]; 2 h) was 0.53 ± 0.09 %ID/g and the “Bmax (apparent number of binding sites per cell)” value [3] was 9.68 × 10^4 sites/cell. The Kd [3, 12] was 16 ± 4.01 nM, the “Bmax (apparent number of binding sites per cell)” value [4] was 2.63 × 10^5 sites/cell and the Kd [4, 12] was 13.5 ± 2.53 nM.
